{
  "source": "patent US8697366B2",
  "about": "“Anti-cancer drug screening method using RORα” (Seoul National University Industry Foundation, priority 2009, dated 2014)",
  "molecules": {"B1": {"name": "Wnt5a: a noncanonical Wnt ligand (protein, UniProt P41221 62-380, looked up)", "Protein Wnt-5a": "IIGAQPLCSQLAGLSQGQKKLCHLYQDHMQYIGEGAKTGIKECQYQFRHRRWNCSTVDNTSVFGRVMQIGSRETAFTYAVSAAGVVNAMSRACREGELSTCGCSRAARPKDLPRDWLWGGCGDNIDYGYRFAKEFVDARERERIHAKGSYESARILMNLHNNEAGRRTVYNLADVACKCHGVSGSCSLKTCWLQLADFRKVGDALKEKYDSAAAMRLNSRGKLVQVNSRFNSPTTQDLVYIDPSPDYCVRNESTGSLGTQGRLCNKTSEGMDGCELMCCGRGYDQFKTVQTERCHCKFHWCCYVKCKKCTEIVDQFVCK"}},
  "type_in_all_cases": "cell-based",
  "key": {"RORα": {"system": "RORα", "experiment": "Phosphorylation of RORα in HCT116 cells (immunoprecipitation / immunoblot with anti-phospho-Ser or anti-phospho-RORαS35 antibody)", "conditions": "HCT116 cells, treatment alone", "experimental": "(A) Schematic representation of RORα showing the location of the N-terminal domain (NTD), the DNA-binding domain (DBD), the hinge region, the ligand-binding domain (LBD), and the AF-2 domain. […] HEK293 cells were cotransfected with plasmids expressing each His-tagged RORα deletion construct and β-catenin. Whole cell extracts (left panel) and Ni^+-NTA-agarose pulldown materials (right panel) were analyzed by immunoblotting against anti-β-catenin IgG or anti-Xpress IgG. (C) Illustration of the structure of deletion fragments of RORα(SEQ ID NO:17). (D) Interaction of each RORα deletion construct with HisMax-β-catenin was assessed by Ni^+-NTA-agarose pulldown assay. […] The phosphorylated peptide samples were analyzed by LC-MS analysis. […] Immunoprecipitation assay was conducted with anti-Flag antibody, and the phosphorylated RORα was detected by immunoblot analysis with anti-phospho-Ser antibody. […] The reaction samples were subjected to 12% SDSPAGE, and phosphorylated RORα was detected by autoradiography. […] The fluorescence-conjugated secondary antibody was visualized using fluorescence microscopy, and nuclear staining with DAPI was shown.\n(A) The specificity of the antibody raised against phosphorylated RORαS35 peptide (SEQ ID NO:18) was assessed by dot blot analysis. (B) Treatment of TPA increased phophorylated RORα on S35 site as assessed by immunoprecipitation with anti-phospho-RORαS35 antibody. […]"}, "cyclin D1 promoter": {"system": "cyclin D1 promoter", "experiment": "ChIP assay on the cyclin D1 promoter in HCT116 cells", "experimental": "(A) The specificity of the antibody raised against phosphorylated RORαS35 peptide (SEQ ID NO:18) was assessed by dot blot analysis. (B) Treatment of TPA increased phophorylated RORα on S35 site as assessed by immunoprecipitation with anti-phospho-RORαS35 antibody. […] (D) Treatment of Go6976, a PKCα inhibitor, abolished TPA-dependent phosphorylation of RORα as assessed by immonoblotting with anti-phospho-RORαS35 antibody. (E) HCT116 cells were transfected with Flag-RORα WT, S35D, or S35A, and the cell extracts were immunoprecipitated with anti-Flag antibody followed by immunoblotting against anti-β-catenin antibody. (F) Coimmunoprecipitation assay of β-catenin with either RORαWT or S35A in HCT116 cells after treatment with TPA in the absence or presence of Go6976. (G) ChIP analysis on the cyclin D1 promoter after transfection with Flag-RORαWT, S35A, or S35D in HCT116 cells. (H) ChIP analysis on the cyclin D1 promoter in HCT116 cells after TPA treatment for indicated time. (I) ChIP assay was performed on the cyclin D1 promoter in the absence or presence of siRNA against PKCα with treatment of TPA for 90 min. (J) Real-time quantitative RT-PCR analysis of the cyclin D1 transcript in HCT116 cells in the presence of TPA for indicated time. (K) Knockdown effect of siRNA against RORα or PKCα was assessed in the expression of the cyclin D1 transcript in HCT116 cells.\n(B) Cyclin D1 transcript was measured after introducing siRNAs against RORα or PKCα in the presence of Wnt5a in HCT116 cells. (C) Real-time quantitative RTPCR analysis of the cyclin D1 transcript in HCT116 cells after introducing RORα, S35A, or S35D in the presence of Wnt5a. (D) […] on the cyclin D1 promoter with treatment of either TPA or Wnt5a in HCT116 cells. Occupancy of the cyclin D1 promoter by phosphorylated RORα, β-catenin, RNA polymerase II, H3K9me2, H3K4me2, CBP, pCAF, p300, or SMRT was indicated. (E) Transwell cell migration assay for RORα, RORαS35A, or RORαS35D-expressing HCT116 cells with treatment of Wnt5a. Values are represented as mean±s.d. for three independent experiments. (F) The anchorage-independent growth of HCT116 cells expressing RORα, RORαS35A, or RORαS35D in soft agar. Values are expressed as mean±SEM for two experiments in 6 place wells. Colonies were counted in 10 different fields and total colony number/well was calculated. Representative image is shown for each group.\nThe ChIP, two-step ChIP, and shRNA-coupled ChIP assays were conducted as previously described (Baek et al., 2002; Kim et al., 2005)."}, "cyclin D1 transcript": {"system": "cyclin D1 transcript", "experiment": "Real-time quantitative RT-PCR of the cyclin D1 transcript in HCT116 cells", "experimental": "The abundance of mRNA was detected by an ABI prism 7300 system with SYBR Green (molecular probes). Primer pairs were designed to amplify 90-150 bp mRNA specific fragments, and confirmed to be unique products by melting curve analysis. The PCR conditions were 95° C. (5 min) and 40 cycles of 95° C. (30 s), 57° C. (30 s), and 72° C. (30 s).\nThe quantity of mRNA was calculated using the ΔΔCt method and normalized by using primers to detect β-actin or HPRT. All reactions were performed in triplicates."}, "PKCα": {"system": "PKCα", "experiment": "Immunoblot against anti-phospho-PKCα antibody after Wnt5a treatment", "conditions": "anti-phospho-PKCα antibody (active form)", "excerpt": "(§1) (A) Treatment of Wnt5a increased phosphorylated RORα and PKCα but decreased cyclin D1 expression as assessed by immunoblot analysis against each antibody."}, "cyclin D1": {"system": "cyclin D1", "experiment": "Immunoblot of cyclin D1 expression in colon cancer cells", "excerpt": "as §1"}, "[1]": {"system": "HCT116 colon cancer cells", "experiment": "Transwell cell migration assay", "conditions": "Wnt5a 100 ng/ml pretreatment 2 hr, compared to non-treated cells", "experimental": "HCT116 cells stably expressing RORα, RORαS35A, or RORαS35D were used in Transwell cell migration assays along with control cells. Transwell cell migration assay was conducted as previously described (Kim et al., 2006). Cultured cells were pretreated with Wnt5a (100 ng/ml) for 2 hr, and 2.5×10^4HCT116 cells were loaded onto the top of a 24-well Transwell chamber assay plate (BD Biosciences). Conditioned McCoy's 5A medium containing 15% fetal bovine serum was added to the bottom chamber as a chemoattractant. After 22 hr incubation, the cells that had migrated to the lower chamber of the filter were fixed with 100% methanol, stained with DAPI, and quantified by counting the total number of cells in four different fields. All experimental studies were performed according to the manufacturer's protocols. Values are expressed as means±standard deviations for at least three independent experiments."}},
  "note": "“Also recorded” adds a separate entry of the source.",
  "data": [
    {"molecule": "B1", "values": [
      {"measurement": "phosphorylation of RORα", "setting": "RORα", "result": "increased phosphorylation"},
      {"measurement": "RNA polymerase II recruitment on the cyclin D1 promoter", "setting": "cyclin D1 promoter", "result": "decreased"},
      {"measurement": "methylation of histone H3K9 on the cyclin D1 promoter", "setting": "cyclin D1 promoter", "result": "increased methylation"},
      {"measurement": "recruitment of CBP, p300, and pCAF coactivators to the cyclin D1 promoter", "setting": "cyclin D1 promoter", "result": "significantly decreased"},
      {"measurement": "recruitment of phosphorylated RORα on the cyclin D1 promoter", "setting": "cyclin D1 promoter; anti-phospho-RORαS35 IgG", "result": "increased the recruitment"},
      {"measurement": "cyclin D1 transcript", "setting": "cyclin D1 transcript", "result": "reduced"},
      {"measurement": "phosphorylation of PKCα", "setting": "PKCα", "result": "increased phosphorylation"},
      {"measurement": "cyclin D1 expression", "setting": "cyclin D1", "result": "downregulation; also recorded: decreased"},
      {"measurement": "migration of HCT116 colon cancer cells", "setting": "[1]", "result": "attenuated"}
    ]}
  ]
}
